Numbered stars: 1 amine (or outer) side, 2 acyl side, 3 side chain; on linkers, the order of the positions; unused ones are H or OH. Bridge positions count the residues as written; N and C are the ends. Side chains are listed from the residue outwards. Ends that are not written are not given here. * marks the point of attachment. C20 diacid = O=C(O)CCCCCCCCCCCCCCCCCCC(=O)*; γGlu = O=C(O)[C@H](CCC(=O)[*:2])N[*:1]
T1: human calcitonin receptor (human, UniProt P30988 25-474)
T1 sequence (looked up): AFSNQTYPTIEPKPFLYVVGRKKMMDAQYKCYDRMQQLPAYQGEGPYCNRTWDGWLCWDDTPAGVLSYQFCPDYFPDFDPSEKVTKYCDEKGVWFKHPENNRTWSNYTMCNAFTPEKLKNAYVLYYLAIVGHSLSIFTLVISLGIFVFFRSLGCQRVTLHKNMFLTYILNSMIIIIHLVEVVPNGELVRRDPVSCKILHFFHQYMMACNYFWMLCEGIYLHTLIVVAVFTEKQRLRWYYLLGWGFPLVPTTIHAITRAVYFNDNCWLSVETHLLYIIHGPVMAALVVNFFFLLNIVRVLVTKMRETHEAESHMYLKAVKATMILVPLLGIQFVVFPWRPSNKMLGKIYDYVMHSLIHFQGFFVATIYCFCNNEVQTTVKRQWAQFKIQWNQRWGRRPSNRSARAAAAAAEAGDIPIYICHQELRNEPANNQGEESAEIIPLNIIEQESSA


What follows are binders tested against T1, human calcitonin receptor (assay: cell-based or functional assay).

hCTR funct. EC50 | Binder
3.88 nM | K([γGlu-C20 diacid])CNTATCATQRLAHFLRHSSPNFGAIPSSTNVGRNTY-NH2 (disulfide 2-7; N-terminus assumed; SMILES CC[C@H](C)[C@H](NC(=O)[C@H](C)NC(=O)CNC(=O)[C@H](Cc1ccccc1)NC(=O)[C@H](CC(N)=O)NC(=O)[C@@H]1CCCN1C(=O)[C@H](CO)NC(=O)[C@H](CO)NC(=O)[C@H](Cc1c[nH]cn1)NC(=O)[C@H](CCCNC(=N)N)NC(=O)[C@H](CC(C)C)NC(=O)[C@H](Cc1ccccc1)NC(=O)[C@H](Cc1c[nH]cn1)NC(=O)[C@H](C)NC(=O)[C@H](CC(C)C)NC(=O)[C@H](CCCNC(=N)N)NC(=O)[C@H](CCC(N)=O)NC(=O)[C@@H](NC(=O)[C@H](C)NC(=O)[C@@H]1CSSC[C@H](NC(=O)[C@@H](N)CCCCNC(=O)CC[C@H](NC(=O)CCCCCCCCCCCCCCCCCCC(=O)O)C(=O)O)C(=O)N[C@@H](CC(N)=O)C(=O)N[C@@H]([C@@H](C)O)C(=O)N[C@@H](C)C(=O)N[C@@H]([C@@H](C)O)C(=O)N1)[C@@H](C)O)C(=O)N1CCC[C@H]1C(=O)N[C@@H](CO)C(=O)N[C@@H](CO)C(=O)N[C@H](C(=O)N[C@@H](CC(N)=O)C(=O)N[C@H](C(=O)NCC(=O)N[C@@H](CCCNC(=N)N)C(=O)N[C@@H](CC(N)=O)C(=O)N[C@H](C(=O)N[C@@H](Cc1ccc(O)cc1)C(N)=O)[C@@H](C)O)C(C)C)[C@@H](C)O, also called compound 85)
1.73 nM | K([γGlu-C20 diacid])CNTATCATQRLAHFLRHSSPNFGAIPSSTNVGHNTY-NH2 (disulfide 2-7; N-terminus assumed; SMILES CC[C@H](C)[C@H](NC(=O)[C@H](C)NC(=O)CNC(=O)[C@H](Cc1ccccc1)NC(=O)[C@H](CC(N)=O)NC(=O)[C@@H]1CCCN1C(=O)[C@H](CO)NC(=O)[C@H](CO)NC(=O)[C@H](Cc1c[nH]cn1)NC(=O)[C@H](CCCNC(=N)N)NC(=O)[C@H](CC(C)C)NC(=O)[C@H](Cc1ccccc1)NC(=O)[C@H](Cc1c[nH]cn1)NC(=O)[C@H](C)NC(=O)[C@H](CC(C)C)NC(=O)[C@H](CCCNC(=N)N)NC(=O)[C@H](CCC(N)=O)NC(=O)[C@@H](NC(=O)[C@H](C)NC(=O)[C@@H]1CSSC[C@H](NC(=O)[C@@H](N)CCCCNC(=O)CC[C@H](NC(=O)CCCCCCCCCCCCCCCCCCC(=O)O)C(=O)O)C(=O)N[C@@H](CC(N)=O)C(=O)N[C@@H]([C@@H](C)O)C(=O)N[C@@H](C)C(=O)N[C@@H]([C@@H](C)O)C(=O)N1)[C@@H](C)O)C(=O)N1CCC[C@H]1C(=O)N[C@@H](CO)C(=O)N[C@@H](CO)C(=O)N[C@H](C(=O)N[C@@H](CC(N)=O)C(=O)N[C@H](C(=O)NCC(=O)N[C@@H](Cc1c[nH]cn1)C(=O)N[C@@H](CC(N)=O)C(=O)N[C@H](C(=O)N[C@@H](Cc1ccc(O)cc1)C(N)=O)[C@@H](C)O)C(C)C)[C@@H](C)O, also called compound 81)
0.542 nM | K([γGlu-C20 diacid])CNTATCATQRLAHFLRHSSPNFGAIPSSTNVGSHTY-NH2 (disulfide 2-7; N-terminus assumed; SMILES CC[C@H](C)[C@H](NC(=O)[C@H](C)NC(=O)CNC(=O)[C@H](Cc1ccccc1)NC(=O)[C@H](CC(N)=O)NC(=O)[C@@H]1CCCN1C(=O)[C@H](CO)NC(=O)[C@H](CO)NC(=O)[C@H](Cc1c[nH]cn1)NC(=O)[C@H](CCCNC(=N)N)NC(=O)[C@H](CC(C)C)NC(=O)[C@H](Cc1ccccc1)NC(=O)[C@H](Cc1c[nH]cn1)NC(=O)[C@H](C)NC(=O)[C@H](CC(C)C)NC(=O)[C@H](CCCNC(=N)N)NC(=O)[C@H](CCC(N)=O)NC(=O)[C@@H](NC(=O)[C@H](C)NC(=O)[C@@H]1CSSC[C@H](NC(=O)[C@@H](N)CCCCNC(=O)CC[C@H](NC(=O)CCCCCCCCCCCCCCCCCCC(=O)O)C(=O)O)C(=O)N[C@@H](CC(N)=O)C(=O)N[C@@H]([C@@H](C)O)C(=O)N[C@@H](C)C(=O)N[C@@H]([C@@H](C)O)C(=O)N1)[C@@H](C)O)C(=O)N1CCC[C@H]1C(=O)N[C@@H](CO)C(=O)N[C@@H](CO)C(=O)N[C@H](C(=O)N[C@@H](CC(N)=O)C(=O)N[C@H](C(=O)NCC(=O)N[C@@H](CO)C(=O)N[C@@H](Cc1c[nH]cn1)C(=O)N[C@H](C(=O)N[C@@H](Cc1ccc(O)cc1)C(N)=O)[C@@H](C)O)C(C)C)[C@@H](C)O, also called compound 66)
0.539 nM | K([γGlu-C20 diacid])CNTATCATQRLAHFLRHSSPNFGAIPSSTPVGSNTY-NH2 (disulfide 2-7; N-terminus assumed; SMILES CC[C@H](C)[C@H](NC(=O)[C@H](C)NC(=O)CNC(=O)[C@H](Cc1ccccc1)NC(=O)[C@H](CC(N)=O)NC(=O)[C@@H]1CCCN1C(=O)[C@H](CO)NC(=O)[C@H](CO)NC(=O)[C@H](Cc1c[nH]cn1)NC(=O)[C@H](CCCNC(=N)N)NC(=O)[C@H](CC(C)C)NC(=O)[C@H](Cc1ccccc1)NC(=O)[C@H](Cc1c[nH]cn1)NC(=O)[C@H](C)NC(=O)[C@H](CC(C)C)NC(=O)[C@H](CCCNC(=N)N)NC(=O)[C@H](CCC(N)=O)NC(=O)[C@@H](NC(=O)[C@H](C)NC(=O)[C@@H]1CSSC[C@H](NC(=O)[C@@H](N)CCCCNC(=O)CC[C@H](NC(=O)CCCCCCCCCCCCCCCCCCC(=O)O)C(=O)O)C(=O)N[C@@H](CC(N)=O)C(=O)N[C@@H]([C@@H](C)O)C(=O)N[C@@H](C)C(=O)N[C@@H]([C@@H](C)O)C(=O)N1)[C@@H](C)O)C(=O)N1CCC[C@H]1C(=O)N[C@@H](CO)C(=O)N[C@@H](CO)C(=O)N[C@H](C(=O)N1CCC[C@H]1C(=O)N[C@H](C(=O)NCC(=O)N[C@@H](CO)C(=O)N[C@@H](CC(N)=O)C(=O)N[C@H](C(=O)N[C@@H](Cc1ccc(O)cc1)C(N)=O)[C@@H](C)O)C(C)C)[C@@H](C)O, also called compound 62)
19.2 nM | K([γGlu-γGlu-C20 diacid])CNTATCATQRLANFLRHSSPNFGAIPSSTNVGHNTY-NH2 (disulfide 2-7; N-terminus assumed; SMILES CC[C@H](C)[C@H](NC(=O)[C@H](C)NC(=O)CNC(=O)[C@H](Cc1ccccc1)NC(=O)[C@H](CC(N)=O)NC(=O)[C@@H]1CCCN1C(=O)[C@H](CO)NC(=O)[C@H](CO)NC(=O)[C@H](Cc1c[nH]cn1)NC(=O)[C@H](CCCNC(=N)N)NC(=O)[C@H](CC(C)C)NC(=O)[C@H](Cc1ccccc1)NC(=O)[C@H](CC(N)=O)NC(=O)[C@H](C)NC(=O)[C@H](CC(C)C)NC(=O)[C@H](CCCNC(=N)N)NC(=O)[C@H](CCC(N)=O)NC(=O)[C@@H](NC(=O)[C@H](C)NC(=O)[C@@H]1CSSC[C@H](NC(=O)[C@@H](N)CCCCNC(=O)CC[C@H](NC(=O)CC[C@H](NC(=O)CCCCCCCCCCCCCCCCCCC(=O)O)C(=O)O)C(=O)O)C(=O)N[C@@H](CC(N)=O)C(=O)N[C@@H]([C@@H](C)O)C(=O)N[C@@H](C)C(=O)N[C@@H]([C@@H](C)O)C(=O)N1)[C@@H](C)O)C(=O)N1CCC[C@H]1C(=O)N[C@@H](CO)C(=O)N[C@@H](CO)C(=O)N[C@H](C(=O)N[C@@H](CC(N)=O)C(=O)N[C@H](C(=O)NCC(=O)N[C@@H](Cc1c[nH]cn1)C(=O)N[C@@H](CC(N)=O)C(=O)N[C@H](C(=O)N[C@@H](Cc1ccc(O)cc1)C(N)=O)[C@@H](C)O)C(C)C)[C@@H](C)O, also called compound 86)
6.55 nM | K([γGlu-γGlu-C20 diacid])CNTATCATQRLAEFLRHSSPNFGAIPSSTNVGRNTY-NH2 (disulfide 2-7; N-terminus assumed; SMILES CC[C@H](C)[C@H](NC(=O)[C@H](C)NC(=O)CNC(=O)[C@H](Cc1ccccc1)NC(=O)[C@H](CC(N)=O)NC(=O)[C@@H]1CCCN1C(=O)[C@H](CO)NC(=O)[C@H](CO)NC(=O)[C@H](Cc1c[nH]cn1)NC(=O)[C@H](CCCNC(=N)N)NC(=O)[C@H](CC(C)C)NC(=O)[C@H](Cc1ccccc1)NC(=O)[C@H](CCC(=O)O)NC(=O)[C@H](C)NC(=O)[C@H](CC(C)C)NC(=O)[C@H](CCCNC(=N)N)NC(=O)[C@H](CCC(N)=O)NC(=O)[C@@H](NC(=O)[C@H](C)NC(=O)[C@@H]1CSSC[C@H](NC(=O)[C@@H](N)CCCCNC(=O)CC[C@H](NC(=O)CC[C@H](NC(=O)CCCCCCCCCCCCCCCCCCC(=O)O)C(=O)O)C(=O)O)C(=O)N[C@@H](CC(N)=O)C(=O)N[C@@H]([C@@H](C)O)C(=O)N[C@@H](C)C(=O)N[C@@H]([C@@H](C)O)C(=O)N1)[C@@H](C)O)C(=O)N1CCC[C@H]1C(=O)N[C@@H](CO)C(=O)N[C@@H](CO)C(=O)N[C@H](C(=O)N[C@@H](CC(N)=O)C(=O)N[C@H](C(=O)NCC(=O)N[C@@H](CCCNC(=N)N)C(=O)N[C@@H](CC(N)=O)C(=O)N[C@H](C(=O)N[C@@H](Cc1ccc(O)cc1)C(N)=O)[C@@H](C)O)C(C)C)[C@@H](C)O, also called compound 88)

Source: patent publication US20140087995A1 (published 2014)
